According to patent US10047131B2, “Peptides and combination of peptides for use in immunotherapy against ovarian cancer and other cancers” (immatics biotechnologies GmbH, priority 2015, dated 2018):

Each substance was assayed against HLA-A*02:01 (Homo sapiens, UniProt P04439, D140Y/D185E/D98H/E176V/E277Q/G131W/G231S/I119V/I121R/I166T/I218V/L300P/L318F/N151K/N90K/P208A/P217A/Q86G/Q94H/R138H/R169H/T345S) (assay: MHC binding assay (UV-ligand exchange, ELISA of exchange yield)). Conditions: binding to HLA-A*02:01, UV-ligand exchange.
Description: Candidate peptides for T cell based therapies according to the present invention were further tested for their MHC binding capacity (affinity). The individual peptide-MHC complexes were produced by UV-ligand exchange, where a UV-sensitive peptide is cleaved upon UV-irradiation, and exchanged with the peptide of interest as analyzed. Only peptide candidates that can effectively bind and stabilize the peptide-receptive MHC molecules prevent dissociation of the MHC complexes. To determine the yield of the exchange reaction, an ELISA was performed based on the detection of the light chain (p2m) of stabilized MHC complexes. The assay was performed as generally described in Rodenko et al. (Rodenko et al., 2006).
96 well MAXISorp plates (NUNC) were coated over night with 2 μg/ml streptavidin in PBS at room temperature, washed 4× and blocked for 1 h at 37° C. in 2% BSA containing blocking buffer. […] Peptide-MHC monomers of the UV-exchange reaction were diluted 100 fold in blocking buffer. Samples were incubated for 1h at 37° C., washed four times, incubated with 2 μg/ml HRP conjugated anti-β2m for 1h at 37° C., washed again and detected with TMB solution that is stopped with […]. Absorption was measured at 450 nm. Candidate peptides that show a high exchange yield (preferably higher than 50%, most preferred higher than 75%) are generally preferred for a generation and production of antibodies or fragments thereof, and/or T cell receptors or fragments thereof, as they show sufficient avidity to the MHC molecules and prevent dissociation of the MHC complexes.
For “518 (KLNAEVACV; listed as Homo sapiens) [compound 518]”, the “Peptide exchange (MHC class I binding score, peptide exchange yield)” value (“Peptide exchange” below) was ““+++” (≥50 = +++)”. “18 (YLVAKLVEV; listed as Homo sapiens) [compound 18]” was tested, and the “Peptide exchange” value was ““++” (≥20% = ++)”. With “108 (ALFPGVALLLA; listed as Homo sapiens) [compound 108]” the “Peptide exchange” value was ““++++” (≥75% = ++++)”. In the case of “556 (FLTDLEDLTL; listed as Homo sapiens) [compound 556]”, the “Peptide exchange” value is reported as ““+++” (≥50 = +++)”. With “558 (GLLENIPRV; listed as Homo sapiens) [compound 558]” the “Peptide exchange” value was ““+++” (≥50 = +++)”. For “547 (TLDITPHTV; listed as Homo sapiens) [compound 547]”, the “Peptide exchange” value was ““+++” (≥50 = +++)”. In the case of “319 (SLEPQIQPV; listed as Homo sapiens) [compound 319]”, the “Peptide exchange” value is reported as ““++” (≥20% = ++)”. For “96 (YIFTDNPAAV; listed as Homo sapiens) [compound 96]”, the “Peptide exchange” value was ““+++” (≥50 = +++)”. With “365 (YVIDQGETDVYV; listed as Homo sapiens) [compound 365]” the “Peptide exchange” value was ““+++” (≥50 = +++)”. With “116 (YHIDEEVGF; listed as Homo sapiens) [compound 116]” the “Peptide exchange” value was ““+” (≥10% = +)”. For “559 (VTVPPGPSL; listed as Homo sapiens) [compound 559]”, the “Peptide exchange” value was ““++” (≥20% = ++)”. For “503 (SLNHFTHSV; listed as Homo sapiens) [compound 503]”, the “Peptide exchange” value was ““+++” (≥50 = +++)”. “109 (IILSILEQA; listed as Homo sapiens) [compound 109]” was tested, and the “Peptide exchange” value was ““++++” (≥75% = ++++)”. With “307 (ALPVSLPQI; listed as Homo sapiens) [compound 307]” the “Peptide exchange” value was ““+++” (≥50 = +++)”. With “241 (SLVEVNPAYSV; listed as Homo sapiens) [compound 241]” the “Peptide exchange” value was ““+++” (≥50 = +++)”. In the case of “211 (LLWPGAALL; listed as Homo sapiens) [compound 211]”, the “Peptide exchange” value is reported as ““++” (≥20% = ++)”. In the case of “11 (KIFEMLEGV; listed as Homo sapiens) [compound 11]”, the “Peptide exchange” value is reported as ““+++” (≥50 = +++)”. “278 (QLLDVVLTI; listed as Homo sapiens) [compound 278]” was tested, and the “Peptide exchange” value was ““++” (≥20% = ++)”. With “167 (KVLEVTEEFGV; listed as Homo sapiens) [compound 167]” the “Peptide exchange” value was ““+++” (≥50 = +++)”. With “362 (TLYGLSVLL; listed as Homo sapiens) [compound 362]” the “Peptide exchange” value was ““+++” (≥50 = +++)”. In the case of “510 (KLYSVVSQL; listed as Homo sapiens) [compound 510]”, the “Peptide exchange” value is reported as ““++” (≥20% = ++)”. For “1 (SLMEPPAVLLL; listed as Homo sapiens) [compound 1]”, the “Peptide exchange” value was ““+++” (≥50 = +++)”. With “57 (TLAELQPPVQL; listed as Homo sapiens) [compound 57]” the “Peptide exchange” value was ““+++” (≥50 = +++)”. For “275 (YLVYILNEL; listed as Homo sapiens) [compound 275]”, the “Peptide exchange” value was ““++” (≥20% = ++)”. “226 (MLYVVPIYL; listed as Homo sapiens) [compound 226]” was tested, and the “Peptide exchange” value was ““++” (≥20% = ++)”. With “580 (LLMENAERV; listed as Homo sapiens) [compound 580]” the “Peptide exchange” value was ““++” (≥20% = ++)”. “165 (SLLDEIRAV; listed as Homo sapiens) [compound 165]” was tested, and the “Peptide exchange” value was ““+++” (≥50 = +++)”. With “507 (KLIDDQDISISL; listed as Homo sapiens) [compound 507]” the “Peptide exchange” value was ““+++” (≥50 = +++)”. “88 (FLLVGDLMAV; listed as Homo sapiens) [compound 88]” was tested, and the “Peptide exchange” value was ““+++” (≥50 = +++)”. For “347 (SLFKHDPAAWEA; listed as Homo sapiens) [compound 347]”, the “Peptide exchange” value was ““++++” (≥75% = ++++)”. In the case of “390 (ALFMKQIYL; listed as Homo sapiens) [compound 390]”, the “Peptide exchange” value is reported as ““+++” (≥50 = +++)”. In the case of “381 (FIDEAYVEV; listed as Homo sapiens) [compound 381]”, the “Peptide exchange” value is reported as ““++” (≥20% = ++)”. In the case of “152 (ILFEDIFDV; listed as Homo sapiens) [compound 152]”, the “Peptide exchange” value is reported as ““+++” (≥50 = +++)”. For “397 (YLFGERLLEC; listed as Homo sapiens) [compound 397]”, the “Peptide exchange” value was ““+++” (≥50 = +++)”. With “148 (ALNPEIVSV; listed as Homo sapiens) [compound 148]” the “Peptide exchange” value was ““++” (≥20% = ++)”. “218 (SALEELVNV; listed as Homo sapiens) [compound 218]” was tested, and the “Peptide exchange” value was ““++” (≥20% = ++)”. With “579 (NLMEMVAQL; listed as Homo sapiens) [compound 579]” the “Peptide exchange” value was ““++” (≥20% = ++)”. “439 (YLLQEIYGI; listed as Homo sapiens) [compound 439]” was tested, and the “Peptide exchange” value was ““+++” (≥50 = +++)”. “118 (KLIDNNINV; listed as Homo sapiens) [compound 118]” was tested, and the “Peptide exchange” value was ““+++” (≥50 = +++)”. In the case of “552 (GLLDLPFRVGV; listed as Homo sapiens) [compound 552]”, the “Peptide exchange” value is reported as ““++++” (≥75% = ++++)”. In the case of “619 (ALQDRVPLA; listed as Homo sapiens) [compound 619]”, the “Peptide exchange” value is reported as ““+++” (≥50 = +++)”. For “261 (YVLEFLEEI; listed as Homo sapiens) [compound 261]”, the “Peptide exchange” value was ““++” (≥20% = ++)”. With “389 (LLADVTHLL; listed as Homo sapiens) [compound 389]” the “Peptide exchange” value was ““++” (≥20% = ++)”. In the case of “236 (GLLEAKVSL; listed as Homo sapiens) [compound 236]”, the “Peptide exchange” value is reported as ““+++” (≥50 = +++)”. For “195 (GLFADLLPRL; listed as Homo sapiens) [compound 195]”, the “Peptide exchange” value was ““+++” (≥50 = +++)”. In the case of “429 (GLVNDLARV; listed as Homo sapiens) [compound 429]”, the “Peptide exchange” value is reported as ““++” (≥20% = ++)”. With “90 (TLLQIIETV; listed as Homo sapiens) [compound 90]” the “Peptide exchange” value was ““+++” (≥50 = +++)”. With “484 (SLIEKVTQL; listed as Homo sapiens) [compound 484]” the “Peptide exchange” value was ““+++” (≥50 = +++)”. With “235 (YLNDLHEVLL; listed as Homo sapiens) [compound 235]” the “Peptide exchange” value was ““++++” (≥75% = ++++)”. For “335 (YSLSSVVTV; listed as Homo sapiens) [compound 335]”, the “Peptide exchange” value was ““+++” (≥50 = +++)”. In the case of “472 (KLLEVSDDPQV; listed as Homo sapiens) [compound 472]”, the “Peptide exchange” value is reported as ““+++” (≥50 = +++)”. With “608 (SLLSVSHAL; listed as Homo sapiens) [compound 608]” the “Peptide exchange” value was ““+++” (≥50 = +++)”. With “601 (SAFPFPVTV; listed as Homo sapiens) [compound 601]” the “Peptide exchange” value was ““+++” (≥50 = +++)”. “140 (YMDAPKAAL; listed as Homo sapiens) [compound 140]” was tested, and the “Peptide exchange” value was ““++” (≥20% = ++)”. With “180 (FQIDPHSGLVTV; listed as Homo sapiens) [compound 180]” the “Peptide exchange” value was ““++” (≥20% = ++)”. In the case of “409 (LLDAMNYHL; listed as Homo sapiens) [compound 409]”, the “Peptide exchange” value is reported as ““++” (≥20% = ++)”. In the case of “358 (ALDEYTSEL; listed as Homo sapiens) [compound 358]”, the “Peptide exchange” value is reported as ““++++” (≥75% = ++++)”. With “454 (KLPPPPPQA; listed as Homo sapiens) [compound 454]” the “Peptide exchange” value was ““+++” (≥50 = +++)”. For “529 (LLADELITV; listed as Homo sapiens) [compound 529]”, the “Peptide exchange” value was ““+++” (≥50 = +++)”. With “492 (SLFDGFADGLGV; listed as Homo sapiens) [compound 492]” the “Peptide exchange” value was ““+++” (≥50 = +++)”. “344 (YLQDQHLLLTV; listed as Homo sapiens) [compound 344]” was tested, and the “Peptide exchange” value was ““+++” (≥50 = +++)”. For “75 (GLLEVMVNL; listed as Homo sapiens) [compound 75]”, the “Peptide exchange” value was ““+++” (≥50 = +++)”.
